According to paper PMC5626548:

Key:
[1] = molecular target: full-length BICD2 S107L (mouse) (UniProt Q921C5); experiment: pull-down
[2] = molecular target: full-length BICD2 I189F (mouse) (UniProt Q921C5); experiment: pull-down
[3] = molecular target: full-length BICD2 N188T (mouse) (UniProt Q921C5); experiment: pull-down
[4] = molecular target: full-length BICD2 F739I (mouse) (UniProt Q921C5); experiment: pull-down
[5] = molecular target: full-length BICD2 (Bicaudal D2), wild type (mouse) (UniProt Q921C5); experiment: pull-down
[6] = molecular target: Rab6a^GTP (Rab6a–Q72L, aa 8–195, KCK motif) linked to liposomes (mouse) (UniProt P35279); experiment: fluorescence intensity of BICD2–GFP on liposomes

ratio of band intensity, mutant to WT BICD2 (lysate only) [1]	ratio of band intensity, mutant to WT BICD2 (lysate only) [2]	ratio of band intensity, mutant to WT BICD2 (lysate only) [3]	ratio of band intensity, mutant to WT BICD2 (lysate only) [4]	fold increase of the pull-down at the highest Rab6a^GTP concentration [5] [fold]	BICD2 molecules per Rab6a^GTP liposome (molecules per liposome) [6]	Substance
2.44	1.61	2.24	1.95	–	–	cytoplasmic dynein, endogenous in porcine brain lysate (complex)
2.88	1.88	3.86	3.65	10	–	dynactin, endogenous in porcine brain lysate (from UniProt A0A287B8J2 1-1281) (complex)
–	–	–	–	–	6.01	full-length BICD2 (Bicaudal D2), wild type (from UniProt Q921C5 1-820) (natural protein)
